According to patent US20260042815A1, “UNIVERSAL T CELLS AND COMPOSITIONS AND METHODS OF USE THEREOF” (The Trustees of the University of Pennsylvania, priority 2022, published 2026):

System: stress ligands (MICA, MICB, ULBP 1-6) on K562 target cells
Assay: Stress ligand blocking on K562 target cells with soluble NKG2D protein
Format: cell-based, human
Settings: parental K562 and K878 targets, NK cells from two donors
Excerpt: Soluble NKG2D protein was employed to block stress ligands (MICA, MICB, ULBP 1-6) on K562 target cells, which interfered with NKG2D mediated recognition of target cells.

B1: NKG2D protein: Soluble NKG2D protein employed to block stress ligands (MICA, MICB, ULBP 1-6) on K562 target cells (protein, UniProt P26718 73-216, looked up)
extracellular domain: IWSAVFLNSLFNQEVQIPLTESYCGPCPKNWICYKNNCYQFFDESKNWYESQASCMSQNASLLKVYSKEDQDLLKLVKSYHWMGLVHIPTNGSWQWEDGSILSPNLLTIIEMQKGDCALYASSFKGYIENCSTPNTYICMQRTV
modifications: extracellular domain
Q: B1 was tested. Which “Effect on target cell recognition by NK cells” value did it give?
A: Its value is “minimal efficacy”.
